Reference: patent US20240141007A1 (XILIO DEVELOPMENT, published 2024)

The binders below were run against T1, human FcRn (human, UniProt P55899 24-297; P61769 21-119) (assay: SPR, hFcRn as ligand).
T1 construct: also called hFcRn
T1 sequence (P55899 24-297 limits assumed, chain 1 of 2): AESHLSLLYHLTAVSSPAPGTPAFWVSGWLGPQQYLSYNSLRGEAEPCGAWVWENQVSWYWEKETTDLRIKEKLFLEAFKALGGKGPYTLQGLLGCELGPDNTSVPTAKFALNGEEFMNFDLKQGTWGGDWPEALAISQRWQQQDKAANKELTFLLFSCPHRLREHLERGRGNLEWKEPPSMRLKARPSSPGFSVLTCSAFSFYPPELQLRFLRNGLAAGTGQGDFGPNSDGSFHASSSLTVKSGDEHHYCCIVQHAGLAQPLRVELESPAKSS
T1 sequence (P61769 21-119 limits assumed, chain 2 of 2): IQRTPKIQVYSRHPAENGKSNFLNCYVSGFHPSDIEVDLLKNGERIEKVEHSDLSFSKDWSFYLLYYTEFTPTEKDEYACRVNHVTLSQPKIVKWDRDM
From the text: Surface Plasmon Resonance (SPR) protein binding assay was used to measure FcRn binding.

Binder	Kd
UCM75 (Fc fusion) chain 1: DKTHTCPPCPAPELLGGPSVFLFPPKPKDTLMISRTPEVTCVVVDVSHEDPEVKFNWYVDGVEVHNAKTKPREEQYASTYRVVSVLTVLHQDWLNGKEYKCKVSNKALPAPIEKTISKAKGQPREPQVYTLPPCRDELTKNQVSLWCLVKGFYPSDIAVEWESNGQPENNYKTTPPVLDSDGSFFLYSKLTVDKSRWQQGNVFSCSVMHEALHNRFTQKSLSLSPGGSPG chain 2: DKTHTCPPCPAPELLGGPSVFLFPPKPKDTLMISRTPEVTCVVVDVSHEDPEVKFNWYVDGVEVHNAKTKPREEQYASTYRVVSVLTVLHQDWLNGKEYKCKVSNKALPAPIEKTISKAKGQPREPQVCTLPPSRDELTKNQVSLSCAVKGFYPSDIAVEWESNGQPENNYKTTPPVLDSDGSFFLVSKLTVDKSRWQQGNVFSCSVMHEALHNHYTVPLSLYSGG	1490 nM
UCM81 (Fc fusion) chain 1: DKTHTCPPCPAPELLGGPSVFLFPPKPKDTLMISRTPEVTCVVVDVSHEDPEVKFNWYVDGVEVHNAKTKPREEQYASTYRVVSVLTVLHQDWLNGKEYKCKVSNKALPAPIEKTISKAKGQPREPQVYTLPPCRDELTKNQVSLWCLVKGFYPSDIAVEWESNGQPENNYKTTPPVLDSDGSFFLYSKLTVDKSRWQQGNVFSCSVMHEALHNRFTQKSLSLSPGGSPG chain 2: DKTHTCPPCPAPELLGGPSVFLFPPKPKDTLMISRTPEVTCVVVDVSHEDPEVKFNWYVDGVEVHNAKTKPREEQYASTYRVVSVLTVLHQDWLNGKEYKCKVSNKALPAPIEKTISKAKGQPREPQVCTLPPSRDELTKNQVSLSCAVKGFYPSDIAVEWESNGQPENNYKTTPPVLDSDGSFFLVSKLTVDKSRWQQGNVFSCSVMHEALHNHYTPANLVAPDP	1100 nM
UCM78 (Fc fusion) chain 1: DKTHTCPPCPAPELLGGPSVFLFPPKPKDTLMISRTPEVTCVVVDVSHEDPEVKFNWYVDGVEVHNAKTKPREEQYASTYRVVSVLTVLHQDWLNGKEYKCKVSNKALPAPIEKTISKAKGQPREPQVYTLPPCRDELTKNQVSLWCLVKGFYPSDIAVEWESNGQPENNYKTTPPVLDSDGSFFLYSKLTVDKSRWQQGNVFSCSVMHEALHNRFTQKSLSLSPGGSPG chain 2: DKTHTCPPCPAPELLGGPSVFLFPPKPKDTLMISRTPEVTCVVVDVSHEDPEVKFNWYVDGVEVHNAKTKPREEQYASTYRVVSVLTVLHQDWLNGKEYKCKVSNKALPAPIEKTISKAKGQPREPQVCTLPPSRDELTKNQVSLSCAVKGFYPSDIAVEWESNGQPENNYKTTPPVLDSDGSFFLVSKLTVDKSRWQQGNVFSCSVMHEALHNHYTQRPLALWRS	181 nM
UCM80 (Fc fusion) chain 1: DKTHTCPPCPAPELLGGPSVFLFPPKPKDTLMISRTPEVTCVVVDVSHEDPEVKFNWYVDGVEVHNAKTKPREEQYASTYRVVSVLTVLHQDWLNGKEYKCKVSNKALPAPIEKTISKAKGQPREPQVYTLPPCRDELTKNQVSLWCLVKGFYPSDIAVEWESNGQPENNYKTTPPVLDSDGSFFLYSKLTVDKSRWQQGNVFSCSVMHEALHNRFTQKSLSLSPGGSPG chain 2: DKTHTCPPCPAPELLGGPSVFLFPPKPKDTLMISRTPEVTCVVVDVSHEDPEVKFNWYVDGVEVHNAKTKPREEQYASTYRVVSVLTVLHQDWLNGKEYKCKVSNKALPAPIEKTISKAKGQPREPQVCTLPPSRDELTKNQVSLSCAVKGFYPSDIAVEWESNGQPENNYKTTPPVLDSDGSFFLVSKLTVDKSRWQQGNVFSCSVMHEALHNHYTQPVSLRSGS	565 nM
UCM77 (Fc fusion) chain 1: DKTHTCPPCPAPELLGGPSVFLFPPKPKDTLMISRTPEVTCVVVDVSHEDPEVKFNWYVDGVEVHNAKTKPREEQYASTYRVVSVLTVLHQDWLNGKEYKCKVSNKALPAPIEKTISKAKGQPREPQVYTLPPCRDELTKNQVSLWCLVKGFYPSDIAVEWESNGQPENNYKTTPPVLDSDGSFFLYSKLTVDKSRWQQGNVFSCSVMHEALHNRFTQKSLSLSPGGSPGAPTSSSTKKTQLQLEHLLLDLQMILNGINNYKNPKLTAMLTAKFAMPKKATELKHLQCLEEALKPLEEVLNLAQSKNFHLRPRDLISNINVIVLELKGSETTFMCEYADETATIVEFLNRWITFAQSIISTLT chain 2: DKTHTCPPCPAPELLGGPSVFLFPPKPKDTLMISRTPEVTCVVVDVSHEDPEVKFNWYVDGVEVHNAKTKPREEQYASTYRVVSVLTVLHQDWLNGKEYKCKVSNKALPAPIEKTISKAKGQPREPQVCTLPPSRDELTKNQVSLSCAVKGFYPSDIAVEWESNGQPENNYKTTPPVLDSDGSFFLVSKLTVDKSRWQQGNVFSCSVMHEALHNHYTRAAAVKSPG	312 nM
UCM79 (Fc fusion) chain 1: DKTHTCPPCPAPELLGGPSVFLFPPKPKDTLMISRTPEVTCVVVDVSHEDPEVKFNWYVDGVEVHNAKTKPREEQYASTYRVVSVLTVLHQDWLNGKEYKCKVSNKALPAPIEKTISKAKGQPREPQVYTLPPCRDELTKNQVSLWCLVKGFYPSDIAVEWESNGQPENNYKTTPPVLDSDGSFFLYSKLTVDKSRWQQGNVFSCSVMHEALHNRFTQKSLSLSPGGSPG chain 2: DKTHTCPPCPAPELLGGPSVFLFPPKPKDTLMISRTPEVTCVVVDVSHEDPEVKFNWYVDGVEVHNAKTKPREEQYASTYRVVSVLTVLHQDWLNGKEYKCKVSNKALPAPIEKTISKAKGQPREPQVCTLPPSRDELTKNQVSLSCAVKGFYPSDIAVEWESNGQPENNYKTTPPVLDSDGSFFLVSKLTVDKSRWQQGNVFSCSVMHEALHNHYTAPAGLIVPYN	1310 nM
UCM76 (Fc fusion) chain 1: DKTHTCPPCPAPELLGGPSVFLFPPKPKDTLMISRTPEVTCVVVDVSHEDPEVKFNWYVDGVEVHNAKTKPREEQYASTYRVVSVLTVLHQDWLNGKEYKCKVSNKALPAPIEKTISKAKGQPREPQVYTLPPCRDELTKNQVSLWCLVKGFYPSDIAVEWESNGQPENNYKTTPPVLDSDGSFFLYSKLTVDKSRWQQGNVFSCSVMHEALHNRFTQKSLSLSPGGSPGAPTSSSTKKTQLQLEHLLLDLQMILNGINNYKNPKLTAMLTAKFAMPKKATELKHLQCLEEALKPLEEVLNLAQSKNFHLRPRDLISNINVIVLELKGSETTFMCEYADETATIVEFLNRWITFAQSIISTLT chain 2: DKTHTCPPCPAPELLGGPSVFLFPPKPKDTLMISRTPEVTCVVVDVSHEDPEVKFNWYVDGVEVHNAKTKPREEQYASTYRVVSVLTVLHQDWLNGKEYKCKVSNKALPAPIEKTISKAKGQPREPQVCTLPPSRDELTKNQVSLSCAVKGFYPSDIAVEWESNGQPENNYKTTPPVLDSDGSFFLVSKLTVDKSRWQQGNVFSCSVMHEALHNHYTQMPYDLYHPNFMLTQPHSVSESPGKTVTISCTRSSGSIASNYVQWYQQRPGSSPTTVIYEDNQRPSGVPDRFSGSIDSSSNSASLTISGLKTEDEADYYCQTYDSIDVYFGGGTKLTVLGGGGGSGGGGSGGGGSGGGGSQLQLQESGPGLVKPSQTLSLTCTVSGGSISSGGYYWSWIRQHPGKGLEWIGYIYKSGSAYYSPSLKSRVTISVDTSKNQFSLKLSSVTAADTAVYYCARTPTVTGDWFDPWGRGTLVTVSS	551 nM
